Assay results as given in the RNAGym collection of RNA variant scans (doi:10.7554/elife.90254).

B1: OR4K15 (parent)
chain: GUUAACGGUCAUAGGCCAUGGAAACUAGGAGCACCAUUUCGCUGCCAGUGAAGAAAUGAACAAAGAAAAUCUGGGCCAGGCAGGCAUCAAAAGAAAUAGUCUUGCGCUCAACCAGAAAGUCUGUAAUCAUUUUAAGGGUA

Variants of: B1
Test: self-cleavage, relative activity (ratio to wild type); higher = more cleavage; in vitro, sequencing; the parent is a self-cleaving ribozyme

Row | Variant | self-cleavage
1 | GUUAACGGUCAUAGGCCAUGGAAACUAGGAGCACCAUUUCGCUGCCAGUGAAGAAAUGAACAAAGAAAAUCUGGGCCAGGCAGGCAUCAAAAGAAAUAGUCUUGCGCUCAACCAGAAAGUCUGUAAUCGUUUCAAGGGUA | 1.42
2 | GUUAACGGUCAUAGGCCAUGGAAACUAGGAGCACCAUUUCGCUGCCAGUGAAGAAAUGAACAAAGAAAAUCUGGGCCAGGCAGGCAUCAAAAGAAAUAGUCUUGCGCUCAACCAGAAAGUCUGUAACCAUUUUAAGGGCA | 0.89
3 | GUUAACGGUCAUAGGCCAUGGAAACUAGGAGCACCAUUUCGCUGCCAGUGAAGAAAUGAACAAAGAAAAUCUGGGCCAGGCAGGCAUCAAAAGAAAUAGUCUUGCGCUCAACCAGAAAGUCUGUAACCAUUUUAGGGGUA | 0.83
4 | GUUAACGGUCAUAGGCCAUGGAAACUAGGAGCACCAUUUCGCUGCCAGUGAAGAAAUGAACAAAGAAAAUCUGGGCCAGGCAGGCAUCAAAAGAAAUAGUCUUGCGCUCAACCAGAAAGUCUGUAAUCGUUUUAAGGGCA | 0.85
5 | GUUAACGGUCAUAGGCCAUGGAAACUAGGAGCACCAUUUCGCUGCCAGUGAAGAAAUGAACAAAGAAAAUCUGGGCCAGGCAGGCAUCAAAAGAAAUAGUCUUGCGCUCAACCAGAAAGUCUGUAAUCGUUUUAAGGGAA | 0.81
6 | GUUAACGGUCAUAGGCCAUGGAAACUAGGAGCACCAUUUCGCUGCCAGUGAAGAAAUGAACAAAGAAAAUCUGGGCCAGGCAGGCAUCAAAAGAAAUAGUCUUGCGCUCAACCAGAAAGUCUGUAAUCAAUCUAAGGGUA | 1.42
7 | GUUAACGGUCAUAGGCCAUGGAAACUAGGAGCACCAUUUCGCUGCCAGUGAAGAAAUGAACAAAGAAAAUCUGGGCCAGGCAGGCAUCAAAAGAAAUAGUCUUGCGCUCAACCAGAAAGUCUGUAAUCUUUUUUAGGGUA | 1.18
8 | GUUAACGGUCAUAGGCCAUGGAAACUAGGAGCACCAUUUCGCUGCCAGUGAAGAAAUGAACAAAGAAAAUCUGGGCCAGGCAGGCAUCAAAAGAAAUAGUCUUGCGCUCAACCAGAAAGUCUGUAAUCACUUUAAGGGUG | 1
9 | GUUAACGGUCAUAGGCCAUGGAAACUAGGAGCACCAUUUCGCUGCCAGUGAAGAAAUGAACAAAGAAAAUCUGGGCCAGGCAGGCAUCAAAAGAAAUAGUCUUGCGCUCAACCAGAAAGUCUGUAAUCUUUUUAUGGGUA | 0.42
10 | GUUAACGGUCAUAGGCCAUGGAAACUAGGAGCACCAUUUCGCUGCCAGUGAAGAAAUGAACAAAGAAAAUCUGGGCCAGGCAGGCAUCAAAAGAAAUAGUCUUGCGCUCAACCAGAAAGUCUGUAAUCGUCUUAAGGGUA | 1.38
11 | GUUAACGGUCAUAGGCCAUGGAAACUAGGAGCACCAUUUCGCUGCCAGUGAAGAAAUGAACAAAGAAAAUCUGGGCCAGGCAGGCAUCAAAAGAAAUAGUCUUGCGCUCAACCAGAAAGUCUGUAAUCACUUUGAGGGUA | 0.27
12 | GUUAACGGUCAUAGGCCAUGGAAACUAGGAGCACCAUUUCGCUGCCAGUGAAGAAAUGAACAAAGAAAAUCUGGGCCAGGCAGGCAUCAAAAGAAAUAGUCUUGCGCUCAACCAGAAAGUCUGUAAUCUUUCUAAGGGUA | 1.12
13 | GUUAACGGUCAUAGGCCAUGGAAACUAGGAGCACCAUUUCGCUGCCAGUGAAGAAAUGAACAAAGAAAAUCUGGGCCAGGCAGGCAUCAAAAGAAAUAGUCUUGCGCUCAACCAGAAAGUCUGUAAUCGUUUUAAGGGUU | 2.17
14 | GUUAACGGUCAUAGGCCAUGGAAACUAGGAGCACCAUUUCGCUGCCAGUGAAGAAAUGAACAAAGAAAAUCUGGGCCAGGCAGGCAUCAAAAGAAAUAGUCUUGCGCUCAACCAGAAAGUCUGUAACCAAUUUAAGGGUA | 0.35
15 | GUUAACGGUCAUAGGCCAUGGAAACUAGGAGCACCAUUUCGCUGCCAGUGAAGAAAUGAACAAAGAAAAUCUGGGCCAGGCAGGCAUCAAAAGAAAUAGUCUUGCGCUCAACCAGAAAGUCUGUAACCCUUUUAAGGGUA | 0.21
16 | GUUAACGGUCAUAGGCCAUGGAAACUAGGAGCACCAUUUCGCUGCCAGUGAAGAAAUGAACAAAGAAAAUCUGGGCCAGGCAGGCAUCAAAAGAAAUAGUCUUGCGCUCAACCAGAAAGUCUGUAAGCGUUUUAAGGGUA | 0.97
17 | GUUAACGGUCAUAGGCCAUGGAAACUAGGAGCACCAUUUCGCUGCCAGUGAAGAAAUGAACAAAGAAAAUCUGGGCCAGGCAGGCAUCAAAAGAAAUAGUCUUGCGCUCAACCAGAAAGUCUGUAAUCAACUUAAGGGUA | 1.75
18 | GUUAACGGUCAUAGGCCAUGGAAACUAGGAGCACCAUUUCGCUGCCAGUGAAGAAAUGAACAAAGAAAAUCUGGGCCAGGCAGGCAUCAAAAGAAAUAGUCUUGCGCUCAACCAGAAAGUCUGUAAUCGUUUUGAGGGUA | 1.15
19 | GUUAACGGUCAUAGGCCAUGGAAACUAGGAGCACCAUUUCGCUGCCAGUGAAGAAAUGAACAAAGAAAAUCUGGGCCAGGCAGGCAUCAAAAGAAAUAGUCUUGCGCUCAACCAGAAAGUCUGUAAUCGUUUUUAGGGUA | 1.02
20 | GUUAACGGUCAUAGGCCAUGGAAACUAGGAGCACCAUUUCGCUGCCAGUGAAGAAAUGAACAAAGAAAAUCUGGGCCAGGCAGGCAUCAAAAGAAAUAGUCUUGCGCUCAACCAGAAAGUCUGUAACCAUCUUAAGGGUA | 0.51
21 | GUUAACGGUCAUAGGCCAUGGAAACUAGGAGCACCAUUUCGCUGCCAGUGAAGAAAUGAACAAAGAAAAUCUGGGCCAGGCAGGCAUCAAAAGAAAUAGUCUUGCGCUCAACCAGAAAGUCUGUAAUCUUCUUAAGGGUA | 0.96

Row | Variant | self-cleavage
22 | GUUAACGGUCAUAGGCCAUGGAAACUAGGAGCACCAUUUCGCUGCCAGUGAAGAAAUGAACAAAGAAAAUCUGGGCCAGGCAGGCAUCAAAAGAAAUAGUCUUGCGCUCAACCAGAAAGUCUGUAACCAUUUAAAGGGUA | 1.7
23 | GUUAACGGUCAUAGGCCAUGGAAACUAGGAGCACCAUUUCGCUGCCAGUGAAGAAAUGAACAAAGAAAAUCUGGGCCAGGCAGGCAUCAAAAGAAAUAGUCUUGCGCUCAACCAGAAAGUCUGUAACCAUUAUAAGGGUA | 0.62
24 | GUUAACGGUCAUAGGCCAUGGAAACUAGGAGCACCAUUUCGCUGCCAGUGAAGAAAUGAACAAAGAAAAUCUGGGCCAGGCAGGCAUCAAAAGAAAUAGUCUUGCGCUCAACCAGAAAGUCUGUAAUCAAUUUAAGGGCA | 0.78
25 | GUUAACGGUCAUAGGCCAUGGAAACUAGGAGCACCAUUUCGCUGCCAGUGAAGAAAUGAACAAAGAAAAUCUGGGCCAGGCAGGCAUCAAAAGAAAUAGUCUUGCGCUCAACCAGAAAGUCUGUAAUCGUUUUAAGCGUA | 1.54
26 | GUUAACGGUCAUAGGCCAUGGAAACUAGGAGCACCAUUUCGCUGCCAGUGAAGAAAUGAACAAAGAAAAUCUGGGCCAGGCAGGCAUCAAAAGAAAUAGUCUUGCGCUCAACCAGAAAGUCUGUAAUAAUUUUGAGGGUA | 1.63
27 | GUUAACGGUCAUAGGCCAUGGAAACUAGGAGCACCAUUUCGCUGCCAGUGAAGAAAUGAACAAAGAAAAUCUGGGCCAGGCAGGCAUCAAAAGAAAUAGUCUUGCGCUCAACCAGAAAGUCUGUAAUCCCUUUAAGGGUA | 0.63
28 | GUUAACGGUCAUAGGCCAUGGAAACUAGGAGCACCAUUUCGCUGCCAGUGAAGAAAUGAACAAAGAAAAUCUGGGCCAGGCAGGCAUCAAAAGAAAUAGUCUUGCGCUCAACCAGAAAGUCUGUAACCAUUUUAAGGGUA | 0.68
29 | GUUAACGGUCAUAGGCCAUGGAAACUAGGAGCACCAUUUCGCUGCCAGUGAAGAAAUGAACAAAGAAAAUCUGGGCCAGGCAGGCAUCAAAAGAAAUAGUCUUGCGCUCAACCAGAAAGUCUGUAAGCAUUUUAAGGGUA | 1.32
30 | GUUAACGGUCAUAGGCCAUGGAAACUAGGAGCACCAUUUCGCUGCCAGUGAAGAAAUGAACAAAGAAAAUCUGGGCCAGGCAGGCAUCAAAAGAAAUAGUCUUGCGCUCAACCAGAAAGUCUGUAAUCCUUUAAAGGGUA | 1.68
31 | GUUAACGGUCAUAGGCCAUGGAAACUAGGAGCACCAUUUCGCUGCCAGUGAAGAAAUGAACAAAGAAAAUCUGGGCCAGGCAGGCAUCAAAAGAAAUAGUCUUGCGCUCAACCAGAAAGUCUGUAAUCUUUUUAAGGGUA | 0.65
32 | GUUAACGGUCAUAGGCCAUGGAAACUAGGAGCACCAUUUCGCUGCCAGUGAAGAAAUGAACAAAGAAAAUCUGGGCCAGGCAGGCAUCAAAAGAAAUAGUCUUGCGCUCAACCAGAAAGUCUGUAAUCCUUUUAAGGGUA | 0.97
33 | GUUAACGGUCAUAGGCCAUGGAAACUAGGAGCACCAUUUCGCUGCCAGUGAAGAAAUGAACAAAGAAAAUCUGGGCCAGGCAGGCAUCAAAAGAAAUAGUCUUGCGCUCAACCAGAAAGUCUGUAAUCGUUUUAAGGGUA | 0.93
34 | GUUAACGGUCAUAGGCCAUGGAAACUAGGAGCACCAUUUCGCUGCCAGUGAAGAAAUGAACAAAGAAAAUCUGGGCCAGGCAGGCAUCAAAAGAAAUAGUCUUGCGCUCAACCAGAAAGUCUGUAAUAAUUUUAAGGGCA | 1.05
35 | GUUAACGGUCAUAGGCCAUGGAAACUAGGAGCACCAUUUCGCUGCCAGUGAAGAAAUGAACAAAGAAAAUCUGGGCCAGGCAGGCAUCAAAAGAAAUAGUCUUGCGCUCAACCAGAAAGUCUGUAAACAUCUUAAGGGUA | 2.45
36 | GUUAACGGUCAUAGGCCAUGGAAACUAGGAGCACCAUUUCGCUGCCAGUGAAGAAAUGAACAAAGAAAAUCUGGGCCAGGCAGGCAUCAAAAGAAAUAGUCUUGCGCUCAACCAGAAAGUCUGUAACCAUUUUUAGGGUA | 1.36
37 | GUUAACGGUCAUAGGCCAUGGAAACUAGGAGCACCAUUUCGCUGCCAGUGAAGAAAUGAACAAAGAAAAUCUGGGCCAGGCAGGCAUCAAAAGAAAUAGUCUUGCGCUCAACCAGAAAGUCUGUAACCAUUUUAAGGGUU | 1.33
38 | GUUAACGGUCAUAGGCCAUGGAAACUAGGAGCACCAUUUCGCUGCCAGUGAAGAAAUGAACAAAGAAAAUCUGGGCCAGGCAGGCAUCAAAAGAAAUAGUCUUGCGCUCAACCAGAAAGUCUGUAAUCCUUCUAAGGGUA | 0.98
39 | GUUAACGGUCAUAGGCCAUGGAAACUAGGAGCACCAUUUCGCUGCCAGUGAAGAAAUGAACAAAGAAAAUCUGGGCCAGGCAGGCAUCAAAAGAAAUAGUCUUGCGCUCAACCAGAAAGUCUGUAAUCACUUUAUGGGUA | 0.65
40 | GUUAACGGUCAUAGGCCAUGGAAACUAGGAGCACCAUUUCGCUGCCAGUGAAGAAAUGAACAAAGAAAAUCUGGGCCAGGCAGGCAUCAAAAGAAAUAGUCUUGCGCUCAACCAGAAAGUCUGUAAUCGUUUUAUGGGUA | 1.54
41 | GUUAACGGUCAUAGGCCAUGGAAACUAGGAGCACCAUUUCGCUGCCAGUGAAGAAAUGAACAAAGAAAAUCUGGGCCAGGCAGGCAUCAAAAGAAAUAGUCUUGCGCUCAACCAGAAAGUCUGUAAUCGUUUUAGGGGUA | 1.08
